Measured values as given in publication PMC4737149, “The autoinhibitory CARD2-Hel2i Interface of RIG-I governs RNA selection”.

What was measured:
[1] = target: T1, RIG-I R109A/L110A (CARD2-Hel2i interface mutant) (human, UniProt O95786 1-925, R109A;L110A); assay: ATPase titration (Kd,app); ATP, 15 C; Buffer A (composition not in the material; 150 mM NaCl stated for some supplementary assays); anisotropy at 15 C with 1-2 nM (blunt) or 40 nM (non-blunt) labell; conditions: protein: recombinant, tags: N-terminal SUMO fusion construct, His (Ni-NTA)
T1 sequence: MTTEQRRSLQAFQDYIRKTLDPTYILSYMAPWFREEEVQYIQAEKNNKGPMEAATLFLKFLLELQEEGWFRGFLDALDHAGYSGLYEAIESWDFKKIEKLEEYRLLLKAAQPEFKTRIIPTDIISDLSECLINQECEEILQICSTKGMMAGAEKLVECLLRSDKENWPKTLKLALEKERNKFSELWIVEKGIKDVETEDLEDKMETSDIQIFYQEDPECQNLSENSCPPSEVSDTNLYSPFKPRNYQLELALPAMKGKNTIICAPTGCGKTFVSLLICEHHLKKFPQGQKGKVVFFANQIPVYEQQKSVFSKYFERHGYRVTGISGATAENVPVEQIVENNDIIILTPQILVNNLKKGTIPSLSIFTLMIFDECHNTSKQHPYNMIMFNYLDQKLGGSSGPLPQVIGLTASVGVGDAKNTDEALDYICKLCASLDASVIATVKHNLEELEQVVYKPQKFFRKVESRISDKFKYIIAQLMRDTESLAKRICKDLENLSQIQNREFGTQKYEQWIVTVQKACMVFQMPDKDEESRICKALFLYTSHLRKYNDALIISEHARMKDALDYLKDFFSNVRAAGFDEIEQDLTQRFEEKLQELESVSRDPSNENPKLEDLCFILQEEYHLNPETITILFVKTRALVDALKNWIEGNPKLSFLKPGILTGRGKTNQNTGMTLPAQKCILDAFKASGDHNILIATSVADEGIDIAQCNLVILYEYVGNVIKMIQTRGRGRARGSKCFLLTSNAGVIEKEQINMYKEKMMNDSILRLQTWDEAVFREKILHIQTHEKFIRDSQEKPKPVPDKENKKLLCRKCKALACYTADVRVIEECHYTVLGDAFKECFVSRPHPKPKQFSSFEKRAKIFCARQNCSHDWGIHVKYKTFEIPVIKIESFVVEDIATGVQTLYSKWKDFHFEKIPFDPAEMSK

[2] = target: T2, RIG-I full length (wt) (human, UniProt O95786 1-925); assay: fluorescence anisotropy; no ATP, 15 C; Buffer A (composition not in the material; 150 mM NaCl stated for some supplementary assays); anisotropy at 15 C with 1-2 nM (blunt) or 40 nM (non-blunt) labell; conditions: protein: recombinant, tags: N-terminal SUMO fusion construct, His (Ni-NTA)
T2 sequence: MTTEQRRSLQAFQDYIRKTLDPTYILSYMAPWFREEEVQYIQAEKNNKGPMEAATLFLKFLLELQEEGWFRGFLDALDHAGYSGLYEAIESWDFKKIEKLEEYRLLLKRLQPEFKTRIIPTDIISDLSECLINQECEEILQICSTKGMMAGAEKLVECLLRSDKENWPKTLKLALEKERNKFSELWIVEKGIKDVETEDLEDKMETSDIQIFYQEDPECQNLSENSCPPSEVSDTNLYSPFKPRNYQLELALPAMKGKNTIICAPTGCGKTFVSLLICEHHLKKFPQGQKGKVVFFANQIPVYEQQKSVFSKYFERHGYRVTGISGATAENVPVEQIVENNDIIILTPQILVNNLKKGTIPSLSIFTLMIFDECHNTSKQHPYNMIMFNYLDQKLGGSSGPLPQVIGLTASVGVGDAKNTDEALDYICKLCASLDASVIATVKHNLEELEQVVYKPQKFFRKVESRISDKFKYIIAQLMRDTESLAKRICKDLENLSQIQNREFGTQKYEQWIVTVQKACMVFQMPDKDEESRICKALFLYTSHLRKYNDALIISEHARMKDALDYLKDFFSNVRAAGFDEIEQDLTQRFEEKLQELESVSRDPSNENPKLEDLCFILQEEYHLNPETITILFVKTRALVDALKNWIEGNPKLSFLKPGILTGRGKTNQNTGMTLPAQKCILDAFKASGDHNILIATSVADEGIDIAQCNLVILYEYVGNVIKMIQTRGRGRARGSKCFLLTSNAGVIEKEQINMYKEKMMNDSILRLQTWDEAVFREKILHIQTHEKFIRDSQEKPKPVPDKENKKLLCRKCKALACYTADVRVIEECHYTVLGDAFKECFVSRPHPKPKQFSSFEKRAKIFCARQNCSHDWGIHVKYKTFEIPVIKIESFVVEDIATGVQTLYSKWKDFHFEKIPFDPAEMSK

[3] = target: T2, RIG-I full length (wt); assay: ATPase titration (Kd,app); ATP, 150 mM NaCl, 37 C; Buffer A (composition not in the material; 150 mM NaCl stated for some supplementary assays); anisotropy at 15 C with 1-2 nM (blunt) or 40 nM (non-blunt) labell; conditions: protein: recombinant, tags: N-terminal SUMO fusion construct, His (Ni-NTA)
[4] = target: T3, Helicase-RD (RIG-I lacking CARDs) (human, UniProt O95786 232-925); assay: stopped-flow kinetics (koff/kon); 15 C; koff 1.5e-3 s-1, kon 6e8 M-1 s-1; Buffer A (composition not in the material; 150 mM NaCl stated for some supplementary assays); anisotropy at 15 C with 1-2 nM (blunt) or 40 nM (non-blunt) labell; conditions: protein: recombinant, tags: N-terminal SUMO fusion construct, His (Ni-NTA), none in ATPase assays
T3 sequence: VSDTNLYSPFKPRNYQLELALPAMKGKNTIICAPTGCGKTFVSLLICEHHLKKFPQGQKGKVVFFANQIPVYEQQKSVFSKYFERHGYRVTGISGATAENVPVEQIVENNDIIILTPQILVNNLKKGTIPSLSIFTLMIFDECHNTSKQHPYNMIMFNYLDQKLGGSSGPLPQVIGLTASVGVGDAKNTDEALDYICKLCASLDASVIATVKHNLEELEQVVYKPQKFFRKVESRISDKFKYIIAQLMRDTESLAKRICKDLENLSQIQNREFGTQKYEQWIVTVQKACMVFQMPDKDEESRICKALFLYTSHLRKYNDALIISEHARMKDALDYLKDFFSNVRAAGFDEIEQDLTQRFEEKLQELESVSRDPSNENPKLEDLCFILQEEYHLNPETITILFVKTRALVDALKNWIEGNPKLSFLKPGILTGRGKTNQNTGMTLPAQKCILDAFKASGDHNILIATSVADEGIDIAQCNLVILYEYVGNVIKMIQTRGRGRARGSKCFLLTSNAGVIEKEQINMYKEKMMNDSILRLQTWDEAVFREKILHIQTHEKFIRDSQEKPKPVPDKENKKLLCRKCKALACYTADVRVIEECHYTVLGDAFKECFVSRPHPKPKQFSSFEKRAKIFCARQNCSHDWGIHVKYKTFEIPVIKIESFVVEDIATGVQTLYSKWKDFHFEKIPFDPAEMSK

[5] = target: T2, RIG-I full length (wt); assay: ATPase titration (Kd,app); ATP, 15 C; same as Kd without ATP; Buffer A (composition not in the material; 150 mM NaCl stated for some supplementary assays); anisotropy at 15 C with 1-2 nM (blunt) or 40 nM (non-blunt) labell; conditions: protein: recombinant, tags: N-terminal SUMO fusion construct, His (Ni-NTA), none in ATPase assays
[6] = target: T3, Helicase-RD (RIG-I lacking CARDs); assay: ATPase titration (Kd,app); ATP, 15 C; Buffer A (composition not in the material; 150 mM NaCl stated for some supplementary assays); anisotropy at 15 C with 1-2 nM (blunt) or 40 nM (non-blunt) labell; conditions: protein: recombinant, tags: N-terminal SUMO fusion construct, His (Ni-NTA)
[7] = target: T2, RIG-I full length (wt); assay: as above; conditions: protein: recombinant, tags: N-terminal SUMO fusion construct, His (Ni-NTA), label: fluorescein on strand 2 in fluorescence assays (5' for anisotropy, 3' for intensity), none in ATPase assays
[8] = target: T2, RIG-I full length (wt); assay: ATPase titration (Kd,app); ATP, 37 C; Buffer A (composition not in the material; 150 mM NaCl stated for some supplementary assays); anisotropy at 15 C with 1-2 nM (blunt) or 40 nM (non-blunt) labell; conditions: protein: recombinant, tags: N-terminal SUMO fusion construct, His (Ni-NTA)
[9] = target: T3, Helicase-RD (RIG-I lacking CARDs); assay: as above; conditions: protein: recombinant; tags: N-terminal SUMO fusion construct, His (Ni-NTA); single strand
[10] = target: T4, RIG-I C-terminal repressor domain (RD) (human, UniProt O95786 801-925); assay: fluorescence anisotropy; no ATP, 15 C; Buffer A (composition not in the material; 150 mM NaCl stated for some supplementary assays); anisotropy at 15 C with 1-2 nM (blunt) or 40 nM (non-blunt) labell; conditions: protein: recombinant; tags: N-terminal SUMO fusion construct, His (Ni-NTA); label: fluorescein on strand 2 in fluorescence assays; 3' overhangs 2 nt at both ends, 8 bp
T4 sequence: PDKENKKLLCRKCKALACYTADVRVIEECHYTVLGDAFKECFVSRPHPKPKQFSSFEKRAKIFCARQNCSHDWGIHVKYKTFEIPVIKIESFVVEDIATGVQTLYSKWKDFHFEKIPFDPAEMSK

[11] = target: T2, RIG-I full length (wt); assay: ATPase titration (Kd,app); ATP, 15 C; Buffer A (composition not in the material; 150 mM NaCl stated for some supplementary assays); anisotropy at 15 C with 1-2 nM (blunt) or 40 nM (non-blunt) labell; conditions: protein: recombinant; tags: N-terminal SUMO fusion construct, His (Ni-NTA); label: fluorescein on strand 2 in fluorescence assays; 3' overhangs 2 nt at both ends, 8 bp
[12] = label: fluorescein on strand 2 in fluorescence assays (5' for anisotropy, 3' for intensity), none in ATPase assays, blunt
[13] = label: fluorescein on strand 2 in fluorescence assays, 3' overhangs 2 nt at both ends, 8 bp
[14] = label: 5' fluorescein on strand 2 in fluorescence assays, 5' overhangs 2 nt at both ends, 8 bp
[15] = hairpin with 5-nt U overhangs at both 5' and 3' ends

B1: 5'ppp RNA (10-bp blunt) (dsRNA)
RNA 1: CGUGAGACAU
RNA 2: AUGUCUCACG
modifications: 5'-triphosphate on strand 1
Kd ([1]; none in ATPase assays, blunt): 0.1 ± 0.1 nM | Kd ([2]; none in ATPase assays, blunt): 0.4 ± 0.2 nM | Kd ([3]; none in ATPase assays): 90 ± 29 nM | Kd [4]: 0.0025 nM | binding signal [5]: 1 fold Kd,app/Kd without ATP

B2: 5'OH RNA (10-bp blunt) (dsRNA)
RNA 1: CGUGAGACAU
RNA 2: AUGUCUCACG
Kd [1, 12]: 0.2 ± 0.3 nM | Kd [6, 12]: 0.07 nM | Kd [2, 12]: 6 ± 0.4 nM | binding signal [7]: ~2.5 fold Kd,app/Kd without ATP

B3: 5'OH 3'ovg RNA (dsRNA)
RNA 1: CGUGAGACAU
RNA 2: GUCUCACGUA
Kd [1, 13]: 121 ± 14 nM | Kd [6, 13]: ~1.5 nM

B4: 5'OH 5'ovg RNA (dsRNA)
RNA 1: CGUGAGACAU
RNA 2: UCAUGUCUCA
Kd [1, 14]: 64 ± 7 nM | Kd [6, 14]: ~1.5 nM | Kd [2, 14]: ~450 nM

UUUUUGAAUAUAAUAGUGAUAUUAUAUUCUUUUU (structured_RNA) [dsRNA stem (hairpin with two overhangs)]
Kd [1, 15]: 53 ± 9 nM | Kd [6, 15]: 0.6 ± 0.4 nM | Kd [8, 15]: 629 ± 165 nM | Kd [2, 15]: ~450 nM

CGUGAGACAU (ssRNA) [5'OH ss10 RNA]
Kd [9]: 1600 ± 500 nM

CGUGAGACAU (ssRNA, 5'-triphosphate) [5'ppp ss10 RNA]
Kd [9]: 500 ± 100 nM

B5: 5'ppp 3'ovg RNA (dsRNA)
RNA 1: CGUGAGACAU
RNA 2: GUCUCACGUA
modifications: 5'-triphosphate on strand 1
Kd [1, 13]: 16 ± 4 nM | Kd [6, 13]: ~0.1 nM | Kd [10]: 165 ± 2 nM | Kd [2, 13]: 3 ± 0.4 nM | binding signal [11]: ~16 fold Kd,app/Kd without ATP

B6: 5'ppp 5'ovg RNA (dsRNA)
RNA 1: CGUGAGACAU
RNA 2: UCAUGUCUCA
modifications: 5'-triphosphate on strand 1
Kd [1, 14]: 43 ± 5 nM | Kd [6, 14]: ~0.1 nM

GAAUAUAAUAGUGAUAUUAUAUUC (structured_RNA) [5'OH HP]
Kd ([8]; hairpin, blunt): 39 ± 4 nM

GAAUAUAAUAGUGAUAUUAUAUUC (structured_RNA, 5'-triphosphate) [5'ppp HP]
Kd ([8]; hairpin, blunt): 6 ± 0.7 nM

B7: 5'ppp RNA 3'F (dsRNA)
RNA 1: CGUGAGACAU
RNA 2: AUGUCUCACG
modifications: 5'-triphosphate on strand 1
Kd ([3]; label: 3' fluorescein on strand 2): 73 ± 18 nM
